{"source": "paper PMC10009755", "about": "(Journal of Medicinal Chemistry, 2023)", "target": "T1, wild-type ubiquitin (UniProt P0CG48 1-76)", "T1 construct": "ubiquitin, the cut product of the ubiquitin precursors; called 'wild-type ubiquitin'", "assay": "SPR; USP21 immobilised by amine coupling on a CM5 chip; Biacore S200, A-B-A injection; 1 uM compound 18 as analyte A, then ubiquitin titrated in 1:2 dilutions from 25 uM; 15 °C", "details": "both partners purified", "data": [{"binder": "human USP21 (Q9UK80, 209-563) (domain or fragment, UniProt Q9UK80 209-563, looked up, cDNA optimized for expression in E. coli; The His tag is thrombin-cleavable; also called recombinant USP21; source: E. coli BL21(DE3), purified (Ni-NTA, MonoS cation exchange, SEC)) SGHVGLRNLGNTCFLNAVLQCLSSTRPLRDFCLRRDFRQEVPGGGRAQELTEAFADVIGALWHPDSCEAVNPTRFRAVFQKYVPSFSGYSQQDAQEFLKLLMERLHLEINRRGRRAPPILANGPVPSPPRRGGALLEEPELSDDDRANLMWKRYLEREDSKIVDLFVGQLKSCLKCQACGYRSTTFEVFCDLSLPIPKKGFAGGKVSLRDCFNLFTKEEELESENAPVCDRCRQKTRSTKKLTVQRFPRILVLHLNRFSASRGSIKKSSVGVDFPLQRLSLGDFASDKAGSPVYQLYALCNHSGSVHYGHYTALCRCQTGWHVYNDSRVSPVSENQVASSEGYVLFYQLMQEPPR", "values": [{"measurement": "binding result", "result": "binds"}]}]}
